In paper PMC10404244:

Assays:
[1] = biological target: detyrosinated microtubules: porcine brain tubulin treated with carboxypeptidase A (CPA) (porcine) (UniProt P02550); assay: TIRF microscopy microtubule-binding assay (titration of fluorescence intensity); apparent; motor titrated 0.1–50 nM on held tyrosinated and detyrosinated microtubules, ADP; n = 160 MTs, N = 2
[2] = biological target: tyrosinated microtubules polymerized from purified porcine brain tubulin (porcine) (UniProt P02550); assay: as above
[3] = biological target: tyrosinated microtubules polymerized from purified porcine brain tubulin (porcine) (UniProt P02550); assay: single-molecule TIRF microscopy (landing rate, processive motility); tyrosinated and detyrosinated microtubules held by biotin-streptavidin in the same chamber, motors at single-molecule concentrations, 2 mM ATP, HP assay buffer pH 7.0
[4] = biological target: detyrosinated microtubules: porcine brain tubulin treated with carboxypeptidase A (CPA) (porcine) (UniProt P02550); assay: TIRF microscopy microtubule-binding assay (mean fluorescence intensity); tyrosinated and detyrosinated microtubules held in the same chamber, 2 mM ADP (Fig. 4C: 50 nM motor, 10 min), HP assay buffer pH 7.0
[5] = biological target: tyrosinated microtubules polymerized from purified porcine brain tubulin (porcine) (UniProt P02550); assay: as above
[6] = biological target: tyrosinated microtubules polymerized from purified porcine brain tubulin (porcine) (UniProt P02550); assay: single-molecule TIRF microscopy (landing rate, dwell time); tyrosinated and detyrosinated microtubules held in the chamber, single molecules of motors, 2 mM ADP, HP assay buffer pH 7.0
[7] = biological target: tyrosinated microtubules polymerized from purified porcine brain tubulin (porcine) (UniProt P02550); assay: TIRF microscopy microtubule-binding assay (mean fluorescence intensity); tyrosinated and detyrosinated microtubules held in the same chamber, 2 mM AMP-PNP, HP assay buffer pH 7.0

Chain of human KIF13B CAP-Gly fragment (a.a. 1685–1826), N-terminal sfGFP-StrepII (Q9NQT8 1685-1826): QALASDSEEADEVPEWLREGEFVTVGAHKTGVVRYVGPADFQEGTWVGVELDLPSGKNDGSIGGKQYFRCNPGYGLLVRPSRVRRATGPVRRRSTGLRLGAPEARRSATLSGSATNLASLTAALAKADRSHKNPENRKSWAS

| Substance | Kd [1] [nM] | Kd [2] [nM] | fold landing rate, tyrosinated over detyrosinated microtubules (ATP) [3] [fold] | fold motor density on microtubules over KIF13B (50 nM, ADP) [4] [fold] | fold binding (fluorescence intensity), tyrosinated over detyrosinated microtubules, ADP [5] [fold] | fold motor density on microtubules over KIF13B (50 nM, ADP) [5] [fold] | fold dwell time, tyrosinated over detyrosinated microtubules (ADP) [6] [fold] | fold landing rate, tyrosinated over detyrosinated microtubules (ADP) [6] [fold] | fold binding (fluorescence intensity), tyrosinated over detyrosinated microtubules, AMP-PNP [7] [fold] | fold lower dwell time than full-length KIF13B or KIF13B^Δtail (tyrosinated microtubules, ADP) [6] [fold] |
| --- | --- | --- | --- | --- | --- | --- | --- | --- | --- | --- |
| full-length human KIF13B K414A, C-terminal sfGFP-StrepII (from UniProt Q9NQT8 1-1826) (natural protein) | 72.7 | 23.7 | 2 | 11 | 2 | 3 | 1.5 | 2 | – | – |
| full-length human KIF13B V178Q, C-terminal sfGFP-StrepII (from UniProt Q9NQT8 1-1826) (natural protein) | – | – | 2 | – | – | – | – | – | – | – |
| full-length human KIF13B (wild type), C-terminal sfGFP-StrepII (from UniProt Q9NQT8 1-1826) (natural protein) | – | – | 2 | – | 8 | – | 1.3 | 2 | 1.4 | – |
| human KIF13B CAP-Gly fragment (a.a. 1685–1826), N-terminal sfGFP-StrepII (from UniProt Q9NQT8 1685-1826) (domain or fragment) | – | – | – | – | – | – | – | 14 | – | 2 to 3 |
